Our source for the binding of rHbl B to Vero cells (flow cytometry, mAb 1G8-Alexa 488) after 10 min heat treatment over a temperature gradient; minimum 7% FL1-positive cells values is publication PMC7694065.

The target of this test is recombinant Hbl B (hemolysin BL component B) with N-terminal strep tag (Bacillus cereus) (UniProt P80172).

Consider “recombinant Hbl B (hemolysin BL component B) with N-terminal strep tag (from UniProt P80172 32-375) (natural protein)”, for which the binding of rHbl B to Vero cells (flow cytometry, mAb 1G8-Alexa 488) after 10 min heat treatment over a temperature gradient; minimum 7% FL1-positive cells at 60 °C, increase from 70 °C upwards (% FL1-positive cells) is 93.
